The source of these data is patent US20150183883A1 (Genentech, published 2015).

In this experiment the target is T1, endothelin B receptor (ETBR) on the surface of UACC-257X2.2 melanoma cells (human, UniProt P24530 27-442).
T1 construct: Endogenous ETBR on UACC-257X2.2 melanoma cells (parental and resistant lines); also called EDNRB; EDNBR
T1 sequence: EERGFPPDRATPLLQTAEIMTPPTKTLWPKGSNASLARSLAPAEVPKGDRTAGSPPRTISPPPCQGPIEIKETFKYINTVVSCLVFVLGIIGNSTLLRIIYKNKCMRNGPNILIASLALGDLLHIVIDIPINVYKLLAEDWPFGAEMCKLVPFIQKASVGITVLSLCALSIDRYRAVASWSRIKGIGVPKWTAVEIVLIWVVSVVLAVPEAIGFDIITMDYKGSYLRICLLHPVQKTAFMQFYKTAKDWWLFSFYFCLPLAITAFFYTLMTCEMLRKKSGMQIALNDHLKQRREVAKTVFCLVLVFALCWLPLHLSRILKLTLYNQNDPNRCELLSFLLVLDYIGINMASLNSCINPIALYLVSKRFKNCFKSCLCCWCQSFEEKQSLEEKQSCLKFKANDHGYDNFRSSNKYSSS
The experiment can be described thus: flow cytometry (FACS) on parental and resistant UACC-257X2.2 cells. How it is done: Expression of ETBR on the surface of the in vivo- and in vitro-derived resistant UACC-257X2.2 cells and the parental UACC-257X2.2 cells was then determined by FACS.
Background: Flow cytometry measures light scatter and fluorescence of single cells or particles in a stream.

B1: ch5E9 (antibody, human IgG1, kappa, V domains shown)
VH: QVQLLQSGAELARPGASVKLSCKASGYTFTSYWMQWVKQRPGQGLEWIGTIYPGDGDTSYAQKFKGKATLTTDKYSSTAYMQLSSLASEDSAVYYCARWGYAYDIDNWGQGTLVTVSS
VL: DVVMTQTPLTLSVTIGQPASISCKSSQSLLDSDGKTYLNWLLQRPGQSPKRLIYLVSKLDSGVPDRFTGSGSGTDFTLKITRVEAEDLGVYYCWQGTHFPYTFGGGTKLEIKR
notes: Naked antibody used as FACS staining reagent and detected with an anti-human Alexa 488 conjugate; also called anti-ETBR antibody; chimeric 5E9
As to B1, the binding result is on record as “binds”.

B2: hu5E9.v1 (antibody, human IgG1, kappa, V domains shown)
VH: EVQLVESGGGLVQPGGSLRLSCAASGYTFTSYWMQWVRQAPGKGLEWIGTIYPGDGDTSYAQKFKGRATLSTDKSKNTAYLQMNSLRAEDTAVYYCARWGYAYDIDNWGQGTLVTVSS
VL: DIQMTQSPSSLSASVGDRVTITCKSSQSLLDSDGKTYLNWLQQKPGKAPKRLIYLVSKLDSGVPSRFSGSGSGTDFTLTISSLQPEDFATYYCWQGTHFPYTFGQGTKVEIKR
notes: Naked antibody used as FACS staining reagent and detected with an anti-human Alexa 488 conjugate; also called anti-ETBR antibody; humanized 5E9 version 1
Regarding B2, the binding result is listed as “binds”.
